Assay results from IntAct's records for PubMed 16717130.

B1: Serine/threonine-protein kinase PAK 1 (Homo sapiens), Q13153 (parent)
chain: MSNNGLDIQDKPPAPPMRNTSTMIGAGSKDAGTLNHGSKPLPPNPEEKKKKDRFYRSILPGDKTNKKKEKERPEISLPSDFEHTIHVGFDAVTGEFTGMPEQWARLLQTSNITKSEQKKNPQAVLDVLEFYNSKKTSNSQKYMSFTDKSAEDYNSSNALNVKAVSETPAVPPVSEDEDDDDDDATPPPVIAPRPEHTKSVYTRSVIEPLPVTPTRDVATSPISPTENNTTPPDALTRNTEKQKKKPKMSDEEILEKLRSIVSVGDPKKKYTRFEKIGQGASGTVYTAMDVATGQEVAIKQMNLQQQPKKELIINEILVMRENKNPNIVNYLDSYLVGDELWVVMEYLAGGSLTDVVTETCMDEGQIAAVCRECLQALEFLHSNQVIHRDIKSDNILLGMDGSVKLTDFGFCAQITPEQSKRSTMVGTPYWMAPEVVTRKAYGPKVDIWSLGIMAIEMIEGEPPYLNENPLRALYLIATNGTPELQNPEKLSAIFRDFLNRCLEMDVEKRGSAKELLQHQFLKIAKPLSSLTPLIAAAKEATKNNH

Variants of: B1
Settings: with paxi_chick PXN

| effect of a mutation on the interaction | Variant |
| --- | --- |
| increasing interaction | L107F |
| decreasing interaction | K299A |
